Reference: paper PMC4497409 (2015)

Biological target: Biotinylated human Norrin K58N (disease-associated mutation) (human, UniProt Q00604 25-133, K58N, biotin on the C-terminal BirA recognition sequence (in vivo biotinylation))
Assay: SPR

Sequence of Biotinylated human Norrin K58N (disease-associated mutation) (Q00604 25-133 K58N): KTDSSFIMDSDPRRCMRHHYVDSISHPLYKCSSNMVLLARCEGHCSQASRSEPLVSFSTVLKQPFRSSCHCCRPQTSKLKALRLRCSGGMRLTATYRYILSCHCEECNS

B1: Frizzled4 cysteine-rich domain (Fz4CRD), human (domain or fragment)
chain: ERRCDPIRISMCQNLGYNVTKMPNLVGHELQTDAELQLTTFTPLIQYGCSSQLQFFLCSVYVPMCTEKINIPIGPCGGMCLSVKRRCEPVLKEFGFAWPESLNCSKFPPQNDHNHMCMEGPGDEEVPLPHKTPIQPGE
modifications: N-linked glycans at Asn59 and Asn144 (full, or cut to N-acetylglucosamine by Endo-F1)
Kd: 1240 nM
